No end group written: not given here. *: point of attachment. acrylodan = acrylodan label (AcDan) on Cys, CN(C)c1ccc2cc(C(=O)CC*)ccc2c1; Dansyl = CN(C)c1cccc2c(S(=O)(=O)*)cccc12
Molecular target: T1, hGOAT (Homo sapiens, UniProt Q96T53)
T1 construct: the gene for hGOAT was cloned with a C-terminal His10 tag into the pFastBacDual vector; His10 (C); made in house; host or cells: Sf9 insect cells, baculovirus (pFastBacDual); used as membrane fraction
T1 sequence (Q96T53 1-435): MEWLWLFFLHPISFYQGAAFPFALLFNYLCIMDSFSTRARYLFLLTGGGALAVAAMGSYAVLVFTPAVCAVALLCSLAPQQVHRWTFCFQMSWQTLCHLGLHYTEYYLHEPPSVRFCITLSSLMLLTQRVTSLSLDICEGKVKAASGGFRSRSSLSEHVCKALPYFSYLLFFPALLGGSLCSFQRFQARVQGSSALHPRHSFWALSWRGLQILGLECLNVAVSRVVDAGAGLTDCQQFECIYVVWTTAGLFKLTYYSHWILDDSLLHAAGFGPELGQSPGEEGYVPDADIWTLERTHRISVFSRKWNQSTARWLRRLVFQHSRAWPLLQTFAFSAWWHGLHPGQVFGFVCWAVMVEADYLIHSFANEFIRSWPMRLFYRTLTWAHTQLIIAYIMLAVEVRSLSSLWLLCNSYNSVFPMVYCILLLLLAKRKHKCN
Test: hGOAT-catalysed octanoylation of fluorescent ghrelin peptide substrates, RP-HPLC with fluorescence detection
Format: biochemical
Settings: for modification (octanoylation) by hGOAT: RP-HPLC with fluorescence detection, hGOAT-His10 membranes vs mock membranes; for Active with hGOAT?: peptide tested as substrate, hGOAT-His10 membranes in parallel with mock membranes; for activity with hGOAT (substrate selectivity at N-terminus, G1 and S2): ghrelin mimic peptide mutants, FIG. 5
Procedure: FIG. 3 is a schematic of ghrelin peptide acylation reactions with the fluorescent GSSFLCAcDan substrate, where (A) is a reaction with control/mock membrane fraction; (B) is a time course for GSSFLCAcDan acylation using GOAT membrane fraction, and where the assays were incubated for 1-10 minutes at 37° C. and all reactions were analyzed using reverse-phase HPLC under the following assay conditions: 10 μM peptide, 50 μg membrane protein, 500 μM octanoyl coenzyme A, 100 μM palmitoyl coenzyme A, 50 mM HEPES buffer pH 7.0.
In order to test the activity of peptide substrates, the gene for hGOAT was cloned with a C-terminal His10 tag into the pFastBacDual vector and expressed using standard baculoviral procedures.
With the peptide substrates, the addition of the hydrophobic octanoyl group upon serine acylation at position 3 leads to an increase in retention time in reverse-phase (RP) HPLC. The panel of fluorescent ghrelin peptide substrates was assayed for activity with hGOAT using HPLC coupled with fluorescence detection of the fluorescently labeled peptides. All reactions with hGOAT-His 10 membranes were performed in parallel with mock membranes to account for nonspecific peptide modifications.
An assay for human ghrelin O-acyltransferase activity was performed using hGOAT expressed from insect (Sf9) cells using standard baculoviral methods and a fluorescent 6-mer peptide synthesized by a single step reaction followed by high performance liquid chromatography (HPLC) purification. The assay was performed at room temperature using hGOAT membrane protein, octanoyl-CoA, a fluorescent ghrelin peptide, a buffer, and a detergent. Activity may be measure by detecting the presence of any octanoylation of the ghrelin peptide. For example, the presence of octanoylated ghrelin peptide may be confirmed by HPLC or by using a fluorescent system whose fluorescence will increase as a result of octanoylation of the ghrelin peptide.

Substance	modification (octanoylation) by hGOAT	Active with hGOAT?	activity with hGOAT (substrate selectivity at N-terminus, G1 and S2)
Dansyl-GSSFLS (SEQ. ID No. 2) (ends and bridges not checked) [Substrate 1-Dansyl, ghrelin mimic peptide with N-terminal dansyl fluorophore]	not modified by hGOAT	No	–
GCAcDanSFLS (SEQ. ID No. 3) (GC(acrylodan)SFLS; ends and bridges not checked) [AcDan-2, ghrelin mimic peptide with acrylodan on cysteine at position 2]	not modified by hGOAT	No	–
GSSFCAcDanS (SEQ. ID No. 4) (GSSFC(acrylodan)S; ends and bridges not checked) [AcDan-5, ghrelin mimic peptide with acrylodan on cysteine at position 5]	yielded the octanoylated peptide with increased retention time	Yes	–
GSSFLCAcDan (SEQ. ID No. 5) [AcDan-6]	yielded the octanoylated peptide with increased retention time	Yes	–
[Ac]GSSFLC (SEQ. ID No. 1)	–	–	low activity
[Ac]SSFLC (SEQ. ID No. 6) (Ac-SSFLC; not fully specified; ends and bridges not checked) [N-terminally acetylated ghrelin mimic peptide lacking G1]	–	–	no activity

— patent US9115383B2, “Fluorescence assay for ghrelin O-acyltransferase activity” (Syracuse University, priority 2012, dated 2015)
